Experimental data from patent US20240174727A1, “LONG-ACTING NATRIURETIC PEPTIDES AND USES THEREOF” (Eli Lilly and Company, priority 2022, published 2024).
Positions count from the first letter of the chain named. Numbered stars: 1 amine (or outer) side, 2 acyl side, 3 side chain; on linkers, the order of the positions; unused ones are H or OH. Bridge positions count the residues as written; N and C are the ends. Square brackets hold non-standard residues; d marks the D form. * marks the point of attachment. thioacetal = thioacetal linkage between two cysteines (intrachain bond at the bracketed Cys); C20 diacid = O=C(O)CCCCCCCCCCCCCCCCCCC(=O)*; γGlu = O=C(O)[C@H](CCC(=O)[*:2])N[*:1]; βAla = NCCC(=O)O

T1: rat NPRA (rat, UniProt P18910 29-1057)
T1 sequence (looked up): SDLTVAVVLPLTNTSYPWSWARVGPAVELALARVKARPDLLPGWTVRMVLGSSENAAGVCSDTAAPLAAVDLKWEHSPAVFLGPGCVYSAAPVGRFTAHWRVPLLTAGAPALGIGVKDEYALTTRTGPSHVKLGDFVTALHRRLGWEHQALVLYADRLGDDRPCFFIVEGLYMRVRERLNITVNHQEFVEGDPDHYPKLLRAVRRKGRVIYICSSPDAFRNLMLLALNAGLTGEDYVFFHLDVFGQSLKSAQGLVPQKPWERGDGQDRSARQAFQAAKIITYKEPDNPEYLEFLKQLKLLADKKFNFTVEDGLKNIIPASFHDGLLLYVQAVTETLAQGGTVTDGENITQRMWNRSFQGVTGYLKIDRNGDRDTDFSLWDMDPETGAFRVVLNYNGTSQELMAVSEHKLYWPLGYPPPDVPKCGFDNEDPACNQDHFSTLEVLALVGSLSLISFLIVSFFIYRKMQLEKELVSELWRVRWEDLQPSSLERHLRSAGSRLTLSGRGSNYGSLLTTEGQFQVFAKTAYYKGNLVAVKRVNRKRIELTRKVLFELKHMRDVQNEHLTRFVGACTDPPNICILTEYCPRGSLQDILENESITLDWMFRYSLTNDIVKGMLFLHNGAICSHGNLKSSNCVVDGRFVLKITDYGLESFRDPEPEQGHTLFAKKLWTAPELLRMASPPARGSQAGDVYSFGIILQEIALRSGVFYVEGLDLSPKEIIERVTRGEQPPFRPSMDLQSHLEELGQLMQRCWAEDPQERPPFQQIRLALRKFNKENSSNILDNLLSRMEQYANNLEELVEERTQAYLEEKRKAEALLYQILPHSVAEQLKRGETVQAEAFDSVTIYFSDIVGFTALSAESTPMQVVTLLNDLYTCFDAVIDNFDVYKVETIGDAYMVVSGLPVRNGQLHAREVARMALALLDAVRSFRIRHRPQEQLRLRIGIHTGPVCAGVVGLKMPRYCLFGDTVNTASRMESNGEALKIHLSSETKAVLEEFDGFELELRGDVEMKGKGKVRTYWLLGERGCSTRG

T2: human NPRA (human, UniProt P16066 33-1061)
T2 sequence (looked up): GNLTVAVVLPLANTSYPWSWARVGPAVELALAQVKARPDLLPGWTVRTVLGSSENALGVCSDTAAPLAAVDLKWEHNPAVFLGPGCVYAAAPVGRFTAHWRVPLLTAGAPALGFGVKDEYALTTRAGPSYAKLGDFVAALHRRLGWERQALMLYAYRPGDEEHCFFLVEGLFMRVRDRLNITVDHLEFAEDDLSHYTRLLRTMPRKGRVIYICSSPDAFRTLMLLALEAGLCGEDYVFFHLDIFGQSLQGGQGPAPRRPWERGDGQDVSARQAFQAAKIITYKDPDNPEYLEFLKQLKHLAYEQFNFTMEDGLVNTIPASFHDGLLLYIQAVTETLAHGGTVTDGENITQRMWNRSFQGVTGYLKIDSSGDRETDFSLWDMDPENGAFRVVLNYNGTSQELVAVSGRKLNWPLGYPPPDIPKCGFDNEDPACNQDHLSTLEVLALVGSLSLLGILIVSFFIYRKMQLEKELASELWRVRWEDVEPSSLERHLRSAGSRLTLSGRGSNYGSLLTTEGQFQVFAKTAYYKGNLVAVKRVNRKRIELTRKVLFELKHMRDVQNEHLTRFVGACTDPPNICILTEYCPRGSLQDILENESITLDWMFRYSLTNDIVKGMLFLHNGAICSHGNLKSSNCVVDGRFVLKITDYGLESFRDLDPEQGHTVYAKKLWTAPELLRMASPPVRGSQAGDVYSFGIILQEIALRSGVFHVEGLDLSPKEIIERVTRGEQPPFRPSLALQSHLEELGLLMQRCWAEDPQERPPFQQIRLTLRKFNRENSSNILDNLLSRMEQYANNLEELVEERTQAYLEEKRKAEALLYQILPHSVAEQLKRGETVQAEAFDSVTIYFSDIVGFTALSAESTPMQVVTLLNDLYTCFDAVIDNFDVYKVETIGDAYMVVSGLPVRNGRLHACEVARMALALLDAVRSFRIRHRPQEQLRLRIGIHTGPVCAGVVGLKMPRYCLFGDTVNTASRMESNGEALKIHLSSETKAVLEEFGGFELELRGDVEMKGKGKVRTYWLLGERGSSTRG

B1: HOOC-(CH2)18-CO-(γGlu)-EKEKEKG-PEG24-S-4Pal-RRSS[CFGKRIDRIGHYSGLGC]PSFRHGGKSSGAPPPS-NH2 (peptide)
peptide: SXRRSSCFGKRIDRIGHYSGLGCPSFRHGGKSSGAPPPS
modifications: N-terminus acylated with HOOC-(CH2)18-CO-(γGlu)-; PEG24 after EKEKEKG; 4Pal; thioacetal linkage between the two bracketed Cys; C-terminal amide
B2: HOOC-(CH2)18-CO-(γGlu)-EKEKEKGEK-βAla-RSS[CFGKRIDRIGHYSGLGC]PSFRHGSPSSGAPPPS-NH2 (peptide)
peptide: {C20 diacid-γGlu}-EKEKEKGEK[βAla]RSSCFGKRIDRIGHYSGLGCPSFRHGSPSSGAPPPS-NH2
modifications: bridge 14-30 via thioacetal
B3: HOOC-(CH2)18-CO-(γGlu)-EKEKEKG-(AEEA)8-S-4Pal-RRSS[CFGKRIDRIGHYSGLGC]PSFRHGSPSSGAPPPS-NH2 (peptide)
peptide: B1 peptide with G30S, K31P
modifications: N-terminus acylated with HOOC-(CH2)18-CO-(γGlu)-; (AEEA)8 after EKEKEKG; 4Pal; thioacetal linkage between the two bracketed Cys; C-terminal amide
B4: HOOC-(CH2)18-CO-(γGlu)-EKEKEKG-(AEEA)6-S-4Pal-RRSS[CFGKRIDRIGHYSGLGC]PSFRHGSPSSGAPPPS-NH2 (peptide)
peptide: B1 peptide with G30S, K31P
modifications: N-terminus acylated with HOOC-(CH2)18-CO-(γGlu)-; (AEEA)6 after EKEKEKG; 4Pal; thioacetal linkage between the two bracketed Cys; C-terminal amide
B5: HOOC-(CH2)18-CO-(γGlu)-EKEKEKGEKPRSS[CFGKRIDRIG-Orn-QSGLGC]PSFRHGSPSSGAPPPS-NH2 (peptide)
peptide: XEKEKEKGEKPRSSCFGKRIDRIGXQSGLGCPSFRHGSPSSGAPPPS
modifications: N-terminus acylated with HOOC-(CH2)18-CO-(γGlu)-; Orn; thioacetal linkage between the two bracketed Cys; C-terminal amide
B6: HOOC-(CH2)18-CO-(γGlu)-EKEKEKG-PEG24-EK-βAla-RSS[CFGKRIDRIGHYSGLGC]PSFRHGGKSSGAPPPS-NH2 (peptide)
peptide: B1 peptide with S1E, X2K, R3X
modifications: N-terminus acylated with HOOC-(CH2)18-CO-(γGlu)-; PEG24 after EKEKEKG; βAla; thioacetal linkage between the two bracketed Cys; C-terminal amide
B7: HOOC-(CH2)18-CO-(γGlu)-EKEKEKG-(AEEA)6-S-4Pal-βAla-RSS[CFGGRIDRIGHYSGLGC]PSFRHGSPSSGAPPPS-NH2 (peptide)
peptide: B1 peptide with R3X, K10G, G30S, K31P
modifications: N-terminus acylated with HOOC-(CH2)18-CO-(γGlu)-; (AEEA)6 after EKEKEKG; 4Pal; βAla; thioacetal linkage between the two bracketed Cys; C-terminal amide

molecular target: T1, rat NPRA; test: cell-based or functional assay

Binder | cGMP Assay (EC50, pM) w/BSA, rNPRA | cGMP Assay (EC50, pM) w/Casein, rNPRA
B1 | 89100 pM | 5320 pM
B2 | 138000 pM | 1340 pM
B3 | 149000 pM | 3780 pM
B4 | 149000 pM | 6360 pM
B5 | – | 192000 pM

molecular target: T2, human NPRA; test: cell-based or functional assay

Binder | cGMP Assay (EC50, pM) w/BSA, hNPRA | cGMP Assay (EC50, pM) w/Casein, hNPRA
B6 | 3490 pM | –
B1 | 2210 pM | 580 pM
B2 | 11600 pM | 282 pM
B3 | 3770 pM | 646 pM
B7 | – | 1530 pM
B4 | 6020 pM | 621 pM
